# Experimental data: patent US6875571B2, “NF-AT polypeptides and polynucleotides and screening methods for immunosuppressive agents” (The Board of Trustees of the Leland Stanford Junior …, priority 1991, dated 2005)
# B1: dominant negative NF-ATc: carboxy terminal truncation of the epitope tagged NF-ATc expression plasmid extending to the PvuII site at amino acid 463 (protein, UniProt Q13469 1-463, looked up, fragment)
# chain: MNAPERQPQPDGGDAPGHEPGGSPQDELDFSILFDYEYLNPNEEEPNAHKVASPPSGPAYPDDVLDYGLKPYSPLASLSGEPPGRFGEPDRVGPQKFLSAAKPAGASGLSPRIEITPSHELIQAVGPLRMRDAGLLVEQPPLAGVAASPRFTLPVPGFEGYREPLCLSPASSGSSASFISDTFSPYTSPCVSPNNGGPDDLCPQFQNIPAHYSPRTSPIMSPRTSLAEDSCLGRHSPVPRPASRSSSPGAKRRHSCAEALVALPPGASPQRSRSPSPQPSSHVAPQDHGSPAGYPPVAGSAVIMDALNSLATDSPCGIPPKMWKTSPDPSPVSAAPSKAGLPRHIYPAVEFLGPCEQGERRNSAPESILLVPPTWPKPLVPAIPICSIPVTASLPPLEWPLSSQSGSYELRIEVQPKPHHRAHYETEGSRGAVKAPTGGHPVVQLHGYMENKPLGLQIFIGTA
# modifications: epitope tag
# Columns and labels:
# Assay type in all cases: cell-based, human
# IL-2 promoter = assay: Secreted alkaline phosphatase reporter in Jurkat Tag cells, IL-2 reporter; settings: transfection, 1 uM ionomycin plus 20 ng/ml PMA
# Method: (§1) Jurkat Tag cells were transfected with vector plasmid (control) or with the dominant negative NF-ATc plasmid, plus the indicated secreted alkaline phosphatase reporter plasmid. Transfected cells were transferred to fresh culture medium 24 hours after transfection and secreted alkaline phosphatase activity was measured (Clipstone and Crabtree (1992) Nature 357: 695-698) 16 to 24 hours later, after stimulation with 1 uM ionomycin plus 20 ng/ml PMA (NF-AT and IL-2 reporters), 20 ng/ml PMA alone (AP-1 reporter) or no stimulation (RSV reporter). Bars indicate, secreted alkaline phosphatase activity from cells transfected with the dominant negative NF-ATc as a percentage of the activity from cells transfected in parallel with control plasmid, and represent data obtained from (n) independent transfections. The dominant negative NF-ATc consists of a carboxy terminal truncation of the epitope tagged NF-ATc expression plasmid extending to the PvuII site at amino acid 463.
# (§2) The dominant negative NF-ATc used consists of a carboxy terminal truncation of the epitope tagged NF-ATc expression plasmid (supra) extending to the PvuII site at amino acid 463.
# NF-AT site = assay: Secreted alkaline phosphatase reporter in Jurkat Tag cells, NF-AT reporter; settings: transfection, 1 uM ionomycin plus 20 ng/ml PMA
# Method: as §1, §2
# AP-1 site = assay: Secreted alkaline phosphatase reporter in Jurkat Tag cells, AP-1 reporter; settings: transfection, 20 ng/ml PMA alone
# Method: as §1, §2
# [1] = test system: RSV promoter and enhancer; assay: Secreted alkaline phosphatase reporter in Jurkat Tag cells, RSV reporter; settings: transfection, no stimulation
# Method: as §1, §2
molecule,measurement,setting,value
B1,inhibition of IL-2 promoter function,IL-2 promoter,more than 90%
same,inhibition of transcription directed by the NF-AT site,NF-AT site,more than 90%
same,transcription directed by the AP-1 site,AP-1 site,relatively unaffected
same,transcription directed by the RSV promoter and enhancer,[1],relatively unaffected
